# Assay results reported in article PMC3237458, “PEGylation Potentiates the Effectiveness of an Antagonistic Peptide That Targets the EphB4 Receptor with Nanomolar Affinity” (PLoS ONE, 2011).
# Values joined by “and” are separate entries in the source; they are usually repeats but may differ in a detail not shown here. Equal values may be shown once. “Also recorded” adds a separate entry of the source. Ends that are not written are not given here.
# Columns and labels:
# [1] = biological target: T1, EphB4 (Homo sapiens, UniProt P54760); experiment: EphB4 activation by multimeric peptide forms (unpublished data); format: cell-based
# T1 sequence (P54760 16-987): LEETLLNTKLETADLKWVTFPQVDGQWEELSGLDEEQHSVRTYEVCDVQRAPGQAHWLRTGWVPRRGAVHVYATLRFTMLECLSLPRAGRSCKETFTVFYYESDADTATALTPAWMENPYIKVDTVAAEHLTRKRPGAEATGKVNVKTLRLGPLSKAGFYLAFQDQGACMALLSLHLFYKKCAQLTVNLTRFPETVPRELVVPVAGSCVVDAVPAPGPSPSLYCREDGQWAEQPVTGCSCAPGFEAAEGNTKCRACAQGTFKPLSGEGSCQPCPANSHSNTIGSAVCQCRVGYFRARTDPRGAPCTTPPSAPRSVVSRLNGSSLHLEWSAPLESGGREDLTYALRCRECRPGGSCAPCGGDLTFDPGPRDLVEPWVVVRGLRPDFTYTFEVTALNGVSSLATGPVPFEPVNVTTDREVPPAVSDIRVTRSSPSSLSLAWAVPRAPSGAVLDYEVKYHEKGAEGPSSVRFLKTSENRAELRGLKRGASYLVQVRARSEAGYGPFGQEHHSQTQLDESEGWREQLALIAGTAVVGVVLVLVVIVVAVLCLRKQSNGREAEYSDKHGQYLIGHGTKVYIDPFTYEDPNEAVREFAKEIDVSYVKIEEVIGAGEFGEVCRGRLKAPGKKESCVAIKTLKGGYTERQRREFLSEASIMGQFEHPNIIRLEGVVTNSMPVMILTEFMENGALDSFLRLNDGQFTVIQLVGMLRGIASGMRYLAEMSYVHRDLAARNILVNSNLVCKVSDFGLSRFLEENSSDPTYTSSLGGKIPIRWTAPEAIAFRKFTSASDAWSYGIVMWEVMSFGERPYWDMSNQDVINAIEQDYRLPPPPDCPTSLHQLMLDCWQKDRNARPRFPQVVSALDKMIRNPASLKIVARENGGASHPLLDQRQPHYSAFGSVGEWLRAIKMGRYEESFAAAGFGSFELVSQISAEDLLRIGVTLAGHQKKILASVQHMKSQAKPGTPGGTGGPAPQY
# [2] = Peptide retention in mouse blood circulation; format: in vivo; settings: C57BL/6 mice, intravenous, serum ELISA, 3 mice, Figure 3C; for Circulation half-life (t1/2): 2.1 nmoles TNYL-RAW-Fc, 1.5 nmoles TNYL-RAW-streptavidin, 6 nmoles PEG-TNYL-RAW, non linear regression; for AUC: % of the injected dose•hours/ml
# Description: 2.1 nmoles TNYL-RAW-Fc, 1.5 nmoles TNYL-RAW-streptavidin and 6 nmoles PEG-TNYL-RAW, diluted in 150 µl sterile PBS, were administered to C57BL/6 mice by intravenous or intraperitoneal injection. Blood was collected from each mouse from the orbital sinus at two time points after injection and by cardiac puncture under Avertin anesthesia at a third time point. These experiments were carried out in accordance with the recommendations in the Guide for the Care and Use of Laboratory Animals of the National Institutes of Health. The protocol was approved by the Institutional Animal Care and Use Committee of the Sanford-Burnham Medical Research Institute (Animal Assurance Number: A-3053-1). After collection, the blood was […], and the serum was stored at −20°C. The different forms of TNYL-RAW in the serum were detected by using the same ELISA assays described above for measurements of binding affinity. The absorbance from wells incubated with mouse serum without TNYL-RAW was subtracted as the background and the concentration of TNYL-RAW in the blood was calculated based on a standard curve generated using serum containing known TNYL-RAW concentrations. The half-life of each peptide was estimated by using non linear regression and the program Prism (GraphPad Software Inc.). The area under the curve (AUC) was expressed as % ID•hours/ml (where ID is the initial dose of peptide injected) and calculated by dividing the AUC value obtained using the program Prism by the amount of injected peptide and multiplying by 100.
# [3] = Peptide stability in cell culture medium / conditioned medium (ELISA of functional peptide); format: in vitro ADME; settings: up to 48 hours; 25 nM peptide; medium diluted 1:10; functional peptide by ELISA; 6–9 measurements; Figure 3A
# Description: PC3 prostate cancer cells were grown in RPMI 1640 medium (Mediatech, Inc, Herndon, VA) with 10% fetal bovine serum (FBS) (Hyclone, Logan, UT), penicillin and streptomycin. B16-F10-luc-G5 melanoma cells (Caliper Life Sciences, Hopkinton, MA) were grown in Eagle's MEM with Earle's Balanced Salts (EBSS) (Hyclone, Logan, UT) supplemented with 10% FBS, non essential amino acids (Hyclone, Logan, UT), L-glutamine, sodium pyruvate (Hyclone, Logan, UT), MEM vitamin solution (Life Technologies-Invitrogen), penicillin and streptomycin (Omega Scientific, Tarzana, CA). HUVECs (Cascade Biologics, Portland, OG) were grown in Medium 200 supplemented with low serum growth supplements (Cascade Biologics), 10% FBS, penicillin and streptomycin, and fungizone (Omega Scientific, Tarzana, CA). Rat EMCs were grown in DMEM (Mediatech, Inc, Herndon, VA) supplemented with 10% FBS, penicillin and streptomycin. The different modified forms of TNYL-RAW at a concentration of 25 nM were added to fresh medium or culture medium conditioned by the cells for 1–4 days. The culture medium was collected after different time periods and diluted 1∶10 in ELISA wells. The amount of intact TNYL-RAW peptide remaining was measured by using the ELISA assays described above for measurement of binding affinity. In some experiments, the peptide was incubated at 37°C with PC3 cell conditioned medium collected from the cells in the absence or in the presence of protease inhibitors (10 µg/ml aprotinin, 5 µg/ml pepstatin, 10 µg/ml leupeptin and 0.75 mM or phenylmethylsulfonylfluoride (PMSF)).
# [4] = Peptide stability in mouse serum ex vivo; format: in vitro ADME; settings: undiluted mouse serum, 37°C, functional peptide by ELISA; Figures 1E, 3B
substance,measurement,setting,value
"TNYL-RAW-Fc: TNYL-RAW fused through a GSGSK linker to the Fc portion of human IgG1, from HEK 293 cells (TNYLFSPNGPIARAWGSGSK-{Fc (human IgG1)}; also: dimer)",Activation of EphB4,[1],unable to detectably activate EphB4
same,Circulation half-life (t1/2),[2],~1 h and 0.8 h
same,AUC,[2],140 % ID-h/ml
same,Degradation in PC3 cell conditioned medium,[3],absence of peptide degradation
same,Stability in mouse serum ex vivo,[4],much decreased degradation; also recorded: not as stable in mouse serum as the streptavidin-bound or PEGylated peptide
TNYL-RAW-streptavidin: biotinylated TNYL-RAW in complex with streptavidin at molar ratio 4:1,Activation of EphB4,[1],unable to detectably activate EphB4
same,Circulation half-life (t1/2),[2],~1 h and 1.3 h
same,AUC,[2],110 % ID-h/ml
same,Degradation in PC3 cell conditioned medium,[3],absence of peptide degradation
same,Stability in mouse serum ex vivo,[4],much decreased degradation
